Experimental data: patent publication US20220251236A1 (Boehringer Ingelheim, published 2022)

Columns and labels:
[1] = biological target: T1, trypsin inhibitor from glycine max soybean (Glycine max (soybean)); assay: SPR (Biacore T200), trypsin inhibitor on CM5 chip, sample at 1 µM
T1 construct: also called Tryp
Description: To prepare the surface for the non-specific binding experiment, chicken egg white lysozyme and trypsin inhibitor from glycine max soybean were coupled manually to a series S CM5 chip with the surface density of 3000-5000 RU using the amine coupling kit according to the manufacture instructions.

[2] = biological target: T2, Human CD3 E+G HuFc-6xHis (human); assay: SPR (ProteOn XPR36), HuCD3E_HuCD3G-Fc amine-coupled, bispecific as analyte, Example 4B
T2 construct: also called hu CD3εγ-Fc
T2 sequence (chain, as listed by the source limits assumed): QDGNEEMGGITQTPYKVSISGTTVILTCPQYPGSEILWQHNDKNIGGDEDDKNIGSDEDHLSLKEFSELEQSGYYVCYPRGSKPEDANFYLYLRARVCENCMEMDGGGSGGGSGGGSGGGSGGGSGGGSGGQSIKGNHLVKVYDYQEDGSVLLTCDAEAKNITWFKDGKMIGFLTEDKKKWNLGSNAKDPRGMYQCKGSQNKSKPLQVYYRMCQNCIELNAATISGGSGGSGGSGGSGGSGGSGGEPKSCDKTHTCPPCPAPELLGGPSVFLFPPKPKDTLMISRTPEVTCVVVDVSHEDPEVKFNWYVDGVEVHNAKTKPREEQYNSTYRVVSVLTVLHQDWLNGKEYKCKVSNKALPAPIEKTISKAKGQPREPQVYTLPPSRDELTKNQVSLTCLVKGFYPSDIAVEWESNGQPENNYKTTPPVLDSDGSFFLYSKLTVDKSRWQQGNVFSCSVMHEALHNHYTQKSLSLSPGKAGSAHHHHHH
Procedure: (§1) The binding affinity of purified DLL3/CD3 bispecific constructs for recombinant human DLL3-ECD and Fc-fusion protein of human CD3 εγ subunits was determined by Surface Plasmon Resonance (SPR), using a ProteOn XPR36 instrument (Bio-Rad).
For binding kinetic determination to CD3, HuCD3E_HuCD3G-Fc (dissolved in pH 4.5 acetate) was immobilized directly onto the sensor surface through amine coupling for 360 sec at a flowrate of 30 μl/min vertically. The baseline was stabilized by injecting PBS-T-EDTA for 60 sec at a flowrate of 30 μl/min horizontally. The analytes (all anti-DLL3/CD3 molecules) were injected horizontally over the captured antibody for 600 sec at a flowrate of 30 μl/min and a dissociation for 1800 sec.

[3] = biological target: T3, EGF2+3; assay: flow cytometry on HEK293 cells expressing the DLL3 subdomain construct, PE anti-human secondary, control: secondary antibody only
T3 construct: also called Hu DLL3 EGF2+3 on HEK293 cells
T3 membrane-anchored DLL3 subdomain construct: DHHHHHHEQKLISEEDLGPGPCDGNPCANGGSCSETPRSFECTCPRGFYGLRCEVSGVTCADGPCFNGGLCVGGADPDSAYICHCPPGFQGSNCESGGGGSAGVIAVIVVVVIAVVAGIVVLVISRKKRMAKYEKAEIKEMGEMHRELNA
Procedure: (§2) DLL3/CD3 binding proteins were produced by transient transfection of CHO-E cells with the pTT5 vectors carrying the chain-encoding genes, as described in Example 2. […] Bound molecules were detected with PE-conjugated anti-human secondary antibody (Sigma-Aldrich, #P8047). As negative control, cells were incubated with secondary antibody only.
(§3) The samples were measured by flow-cytometry. […] The sequences of the epitope domains are listed in Example 5, Table 3.

[4] = biological target: T4, EGF3+4; assay: as above
T4 construct: also called Hu DLL3 EGF3+4 on HEK293 cells
T4 membrane-anchored DLL3 subdomain construct: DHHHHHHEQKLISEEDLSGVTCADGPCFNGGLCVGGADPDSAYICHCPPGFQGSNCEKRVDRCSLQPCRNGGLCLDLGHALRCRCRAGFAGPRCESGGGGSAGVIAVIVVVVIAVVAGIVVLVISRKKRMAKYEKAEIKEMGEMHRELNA
Procedure: as §2, §3

[5] = biological target: T5, EGF4+5; assay: as above
T5 construct: also called Hu DLL3 EGF4+5 on HEK293 cells
T5 membrane-anchored DLL3 subdomain construct: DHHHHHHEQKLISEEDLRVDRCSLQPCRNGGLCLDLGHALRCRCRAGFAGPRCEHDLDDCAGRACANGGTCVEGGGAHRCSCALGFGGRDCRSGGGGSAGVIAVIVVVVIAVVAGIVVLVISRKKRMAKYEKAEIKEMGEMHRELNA
Procedure: as §2, §3

[6] = biological target: T6, EGF5+6; assay: as above
T6 construct: also called Hu DLL3 EGF5+6 on HEK293 cells
T6 membrane-anchored DLL3 subdomain construct: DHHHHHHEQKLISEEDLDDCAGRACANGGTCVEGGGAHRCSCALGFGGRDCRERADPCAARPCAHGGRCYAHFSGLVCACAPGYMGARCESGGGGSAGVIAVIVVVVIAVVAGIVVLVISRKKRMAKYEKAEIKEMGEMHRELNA
Procedure: as §2, §3

[7] = biological target: T7, EGF6+MEMBRANE PROXIMAL PEPTIDE; assay: as above
T7 construct: also called Hu DLL3 EGF6+membrane proximal peptide on HEK293 cells
T7 membrane-anchored DLL3 subdomain construct: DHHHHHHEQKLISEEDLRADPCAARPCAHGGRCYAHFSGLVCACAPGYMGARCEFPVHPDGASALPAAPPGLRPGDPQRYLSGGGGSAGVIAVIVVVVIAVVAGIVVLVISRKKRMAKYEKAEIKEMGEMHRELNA
Procedure: as §2, §3

[8] = biological target: T8, Human DLL3-His (human, UniProt Q9NYJ7 27-492); assay: SPR (ProteOn XPR36), bispecific captured on protein A/G, hu DLL3 as analyte, Example 4B
T8 construct: also called huDLL3-His; hu DLL3
T8 sequence: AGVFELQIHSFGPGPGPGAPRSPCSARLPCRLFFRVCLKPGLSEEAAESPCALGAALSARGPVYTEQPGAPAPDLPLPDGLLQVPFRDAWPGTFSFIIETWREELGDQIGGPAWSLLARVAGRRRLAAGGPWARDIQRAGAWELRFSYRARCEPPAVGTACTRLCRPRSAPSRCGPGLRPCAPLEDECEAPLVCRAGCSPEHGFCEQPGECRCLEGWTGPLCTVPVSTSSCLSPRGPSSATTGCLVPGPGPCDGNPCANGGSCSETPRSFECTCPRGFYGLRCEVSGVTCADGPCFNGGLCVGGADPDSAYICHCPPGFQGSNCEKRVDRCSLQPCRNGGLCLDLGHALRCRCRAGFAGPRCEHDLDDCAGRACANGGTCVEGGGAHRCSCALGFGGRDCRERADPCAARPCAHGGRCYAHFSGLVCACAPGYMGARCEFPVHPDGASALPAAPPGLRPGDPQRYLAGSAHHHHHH
Procedure: as §1
For binding kinetic determination to DLL3, anti-DLL3/CD3 molecules were captured individually on the protein A/G surface vertically for 200 sec at a flowrate of 30 μl/min. The baseline was stabilized by injecting PBS-T-EDTA for 60 sec at a flowrate of 30 μl/min horizontally. The analyte (hu DLL3) was injected horizontally over the captured antibody for 300 sec at a flowrate of 30 μl/min and a dissociation for 1800 sec.

[9] = biological target: T9, EGF1+2; assay: flow cytometry on HEK293 cells expressing the DLL3 subdomain construct, PE anti-human secondary, control: secondary antibody only
T9 construct: also called Hu DLL3 EGF1+2 on HEK293 cells
T9 membrane-anchored DLL3 subdomain construct: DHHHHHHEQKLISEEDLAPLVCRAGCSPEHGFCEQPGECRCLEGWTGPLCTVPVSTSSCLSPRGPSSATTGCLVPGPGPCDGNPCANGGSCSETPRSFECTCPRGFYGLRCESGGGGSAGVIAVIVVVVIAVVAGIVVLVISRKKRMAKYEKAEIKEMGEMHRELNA
Procedure: as §2, §3

T1 sequence (P01070 25-205): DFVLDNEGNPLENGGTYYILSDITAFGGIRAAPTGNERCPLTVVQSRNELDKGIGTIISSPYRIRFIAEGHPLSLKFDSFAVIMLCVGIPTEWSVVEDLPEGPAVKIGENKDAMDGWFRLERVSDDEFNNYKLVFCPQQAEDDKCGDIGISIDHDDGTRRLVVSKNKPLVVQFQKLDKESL

Row | Binder | Non-specific binding (RU) [1] [RU] | Kd [2] [nM] | binding result [3] | binding result [4] | binding result [5] | binding result [6] | binding result [7] | Kd [8] [nM] | binding result [9]
1 | DLL3#11/CD3#1 (bispecific antibody, human IgG1, kappa, lambda, L234A L235A, Heterodimer of one DLL3 chain and one CD3 chain (scFab-Fc, knob-in-hole)) chain 1: QIVLTQSPAIMSASPGEKVTITCSASSSVTYIHWFQQNPGTSPKLWIYRTSYLASGVPARFSGSGSGTSYSLTISRMEAEDAATYYCQQRSSYPRTFGGGTKLEIKRTVAAPSVFIFPPSDEQLKSGTASVVCLLNNFYPREAKVQWKVDNALQSGNSQESVTEQDSKDSTYSLSSTLTLSKADYEKHKVYACEVTHQGLSSPVTKSFNRGECGGGGSEGKSSGSGSESKSTEGKSSGSGSESKSTGGGGSQVQLQQPGAELVQPGSSVKMSCKASGYAFSDYWITWVKQRPGQGLEWIGDIYPGSGSTKSSEKFKNKATLTADTSSSKAYIQFSSLTPEDSAVYYCVSLYYYGSHYLDTWGQGTTLTVSSASTKGPSVFPLAPSSKSTSGGTAALGCLVKDYFPEPVTVSWNSGALTSGVHTFPAVLQSSGLYSLSSVVTVPSSSLGTQTYICNVNHKPSNTKVDKRVEPKSCDKTHTCPPCPAPEAAGGPSVFLFPPKPKDTLMISRTPEVTCVVVDVSHEDPEVKFNWYVDGVEVHNAKTKPREEQYNSTYRVVSVLTVLHQDWLNGKEYKCKVSNKALPAPIEKTISKAKGQPREPQVYTLPPSREEMTKNQVSLWCLVKGFYPSDIAVEWESNGQPENNYKTTPPVLDSDGSFFLYSKLTVDKSRWQQGNVFSCSVMHEALHNHYTQKSLSLSPG chain 2: EAVVTQEPSLTVSPGGTVTLTCRSSTGAVTTSNYANWVQEKPGQLPRGLIGGTNKRAPWVPARFSGSLLGGKAALTLSGAQPEDEAEYFCALWYSNLWVFGGGTKLTVLGQPKAAPSVTLFPPSSEELQANKATLVCLISDFYPGAVKVAWKADGSPVNTGVETTTPSKQSNNKYAASSYLSLTPEQWKSHRSYSCQVTHEGSTVEKTVAPAECSGGGGSEGKSSGSGSESKSTEGKSSGSGSESKSTGGGGSEVQLVESGGGLVQPGGSLKLSCAASGFTFNTYAMNWVRQAPGKGLEWVARIRSKYNNYATYYADSVKDRFTISRDDSKNTAYLQMNNLKTEDTAVYYCVRHGNFGNSYVSWFAYWGQGTLVTVSAASTKGPSVFPLAPSSKSTSGGTAALGCLVKDYFPEPVTVSWNSGALTSGVHTFPAVLQSSGLYSLSSVVTVPSSSLGTQTYICNVNHKPSNTKVDKRVEPKSCDKTHTCPPCPAPEAAGGPSVFLFPPKPKDTLMISRTPEVTCVVVDVSHEDPEVKFNWYVDGVEVHNAKTKPREEQYNSTYRVVSVLTVLHQDWLNGKEYKCKVSNKALPAPIEKTISKAKGQPREPQVYTLPPSREEMTKNQVSLSCAVKGFYPSDIAVEWESNGQPENNYKTTPPVLDSDGSFFLVSKLTVDKSRWQQGNVFSCSVMHEALHNRFTQKSLSLSPG | 13 | 2 | no binding (tested: 1.6 nM) | no binding (tested: 1.6 nM) | no binding (tested: 1.6 nM) | no binding (tested: 1.6 nM) | no binding (tested: 1.6 nM) |  | 
2 | DLL3#14/CD3#1 (bispecific antibody, human IgG1, kappa, lambda, L234A L235A, Heterodimer of one DLL3 chain and one CD3 chain (scFab-Fc, knob-in-hole)) chain 1: not shown chain 2: EAVVTQEPSLTVSPGGTVTLTCRSSTGAVTTSNYANWVQEKPGQLPRGLIGGTNKRAPWVPARFSGSLLGGKAALTLSGAQPEDEAEYFCALWYSNLWVFGGGTKLTVLGQPKAAPSVTLFPPSSEELQANKATLVCLISDFYPGAVKVAWKADGSPVNTGVETTTPSKQSNNKYAASSYLSLTPEQWKSHRSYSCQVTHEGSTVEKTVAPAECSGGGGSEGKSSGSGSESKSTEGKSSGSGSESKSTGGGGSEVQLVESGGGLVQPGGSLKLSCAASGFTFNTYAMNWVRQAPGKGLEWVARIRSKYNNYATYYADSVKDRFTISRDDSKNTAYLQMNNLKTEDTAVYYCVRHGNFGNSYVSWFAYWGQGTLVTVSAASTKGPSVFPLAPSSKSTSGGTAALGCLVKDYFPEPVTVSWNSGALTSGVHTFPAVLQSSGLYSLSSVVTVPSSSLGTQTYICNVNHKPSNTKVDKRVEPKSCDKTHTCPPCPAPEAAGGPSVFLFPPKPKDTLMISRTPEVTCVVVDVSHEDPEVKFNWYVDGVEVHNAKTKPREEQYNSTYRVVSVLTVLHQDWLNGKEYKCKVSNKALPAPIEKTISKAKGQPREPQVYTLPPSREEMTKNQVSLSCAVKGFYPSDIAVEWESNGQPENNYKTTPPVLDSDGSFFLVSKLTVDKSRWQQGNVFSCSVMHEALHNRFTQKSLSLSPG | 6 | 3 | no binding (tested: 1.6 nM) | no binding (tested: 1.6 nM) | no binding (tested: 1.6 nM) | no binding (tested: 1.6 nM) | no binding (tested: 1.6 nM) | 0.06 | no binding (tested: 1.6 nM)
